The target of data set [1] is prekallikrein (PK) (Homo sapiens, UniProt P03952). To be noted: cited from earlier work.
The test system of data set [2] is neutrophils isolated from bone marrow of femurs of mice. In words: Neutrophil activation following incubation with ATP (flow cytometry). The format is cell-based, mice (C57BL/6). As for the experimental part: Neutrophils were isolated from the bone marrow of femurs of mice (C57BL/6) as previously described (Hu 2012), using FR-1-coupled magnetic beads (anti-Ly6G Microbead Kit, Miltenyi Biotec). For activation with TFNα, cells were harvested, centrifugated and incubated during 30 min with or without 2 ng/ml of TNFα in Hanks solution (Gibco). Next, neutrophils were incubated with Ir-CPI (0.65 or 2 μM) in Hanks solution (1 h at 37° C.). For activation with ATP, cells were harvested, centrifugated and incubated with ATP 10 μM and Ir-CPI (0.65 or 2 μM) in Hanks solution (1 h at 37° C.). After washing of cells, expression of CD11b, activated CD11b or Ly6G was assessed by flow cytometry (Beckman Coulter Gallios). Antibodies used for neutrophil identification and activation analyses were IRR IgG1-FITC (irrelevant antibody), anti-CD45-APC, anti-Ly6G-PE and anti-CD11b-FITC or Alexa Fluor 647 anti-activated CD11b-. Analysis of results was performed using the Kaluza software (Beckman Coulter).
Percentage of activation marker expression was presented as mean±SEM (n=3independent experiments for TNFα activation and n=2 independent experiments for ATP activation). For experiments with TNFα activation, a one-way ANOVA followed by a
Neutrophils isolated from bone marrow of femurs of mice were submitted to different in vitro experimental conditions (untreated control or incubation with Ir-CPI, and with or without ATP) to assess the effect of Ir-CPI on their activation status. The activation status was assessed by analyzing the percentage of CD11b, activated CD11b and Ly6G expressions at the surface of neutrophils (FIG. 17).
On the technique in general: Flow cytometry measures light scatter and fluorescence of single cells or particles in a stream.

In data set [3] the test system is platelet accumulation and fibrin generation in Panc02 tumor-bearing mice. In words: Laser injury in pancreatic cancer-bearing mice (cancer-associated thrombosis model). The format is in vivo, mice (C57BL/6JRj). The following applies: for fibrin generation compared to NaCl cancer mice / platelet accumulation compared to NaCl cancer mice: tumor-bearing mice. Here is the method: Murine Panc02 cells (mouse pancreatic ductal adenocarcinoma cell line) were cultured to a 80% confluence in RPMI-1640 medium (Life Technologies) supplemented with 10% FCS (PAA), 1000 U/mL penicillin (Life Technologies), 100 μg/mL streptomycin (Life Technologies) and 0.1% fungizone (Life Technologies) at 37° C. in a humidified atmosphere with 5% CO2. Once in the exponential growth phase, cells were washed three times with PBS and briefly exposed to non-enzymatic cell dissociation buffer (Life
Technologies) to dislodge the cells. The cells were carefully washed three times, resuspended in PBS, and diluted to the desired concentration.
Five-week-old C57BL/6 mice were injected subcutaneously in the right flank with a tumor cell suspension (10^6 cells in 100 μL of PBS). When the tumor became palpable (0.2 cm), measurements in two dimensions were performed with a caliper, and the volume of each tumor was calculated according to the formula for the volume of an ellipsoid: π/6×a(b)^2, where a is the largest diameter and b the smallest diameter of the tumor.
Intravital video-microscopy of the cremaster muscle microcirculation was done as previously described (Falati et al., 2002) and as described hereinabove (see Example 1).
Vessel wall injury was induced with a Micropoint Laser System (Photonics Instruments) as described hereinabove (see Example 1).
Platelet and fibrin accumulation after injury were monitored and detected as indicated hereinabove (see Example 1).
Tumor-bearing mice were attributed to the Ir-CPI-treated group (Ir-CPI cancer) or to the control group (NaCl cancer). Moreover, cancer-free mice treated with NaCl (NaCl cancer-free) were also used as negative control. All mice were submitted to laser injuries in arterioles of the cremaster muscle to trigger thrombosis. Ir-CPI treated mice received either a low or a high dose of the investigative product.
Platelet accumulation and fibrin generation on the injured vessel walls were monitored using the following fluorescently labeled antibodies: DyLight649-labeled anti-GPIb antibody and Alexa Fluor 488-conjugated anti-fibrin antibody, respectively.

Data set [4] in a line: Distribution and elimination of Ir-CPI in the mice. Format: in vivo. Here is the method: (§1) Ir-CPI was administered intravenously as a bolus (20.5 mg/kg) immediately followed by a continuous infusion at a rate of 3.7 mg/kg/h (see Table 1 below). Due to fast distribution and elimination of Ir-CPI in the mice (t1/2α=14 min and t1/2β=236 min), the combination of the bolus and the infusion was chosen in order to maintain a constant Ir-CPI concentration into the blood.

For data set [5], the system named is clot fibrinolysis. To be noted: dose-dependent; in a lesser extend than aPTT; cited from earlier work.
Data set [6] relates to intrinsic pathway. The following applies: in vitro; dose-dependent; cited from earlier work.
Data set [7] has as its system neutrophil elastase activity. In words: Laser-induced vessel wall injury: neutrophil elastase activity. The format is in vivo, mice (C57BL/6JRj). The following applies: iv bolus 20.5 mg/kg + infusion 3.7 mg/kg/h. As for the experimental part: as §1
Vessel wall injury was induced with a Micropoint Laser System (Photonics Instruments) focused through the microscope objective, parfocal with the focal plane and aimed at the vessel wall, as previously described (Dubois et al., 2006). Typically, 1 or 2 pulses were required to induce vessel wall injury.
Multiple thrombi were studied in a single mouse, with new thrombi formed upstream of earlier thrombi to avoid any contribution from thrombi generated earlier in the animal under study. Laser-beam injuries were done at various time after the start of test-item administration (+5 min up to about 150 min after bolus administration of Ir-CPI or NaCl (control)).
Image analysis was performed using Slidebook 4.1 (Intelligent Imaging Innovations). Fluorescence data were captured digitally at up to 50 frames per second and analyzed as previously described (Falati et al., 2002). The kinetics of thrombus formation were analyzed by determining median fluorescence values over time in a minimum number of 20 thrombi. […]

In data set [8] the target is Factor Xa (Homo sapiens, UniProt P00742). The following applies: cited from earlier work.
Sequence of Factor Xa (P00742 41-179 limits assumed): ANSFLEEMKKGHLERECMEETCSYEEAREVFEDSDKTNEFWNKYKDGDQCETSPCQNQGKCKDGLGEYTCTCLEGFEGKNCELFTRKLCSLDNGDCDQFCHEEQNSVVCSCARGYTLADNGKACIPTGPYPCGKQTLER
Sequence of Factor Xa (P00742 235-488 limits assumed): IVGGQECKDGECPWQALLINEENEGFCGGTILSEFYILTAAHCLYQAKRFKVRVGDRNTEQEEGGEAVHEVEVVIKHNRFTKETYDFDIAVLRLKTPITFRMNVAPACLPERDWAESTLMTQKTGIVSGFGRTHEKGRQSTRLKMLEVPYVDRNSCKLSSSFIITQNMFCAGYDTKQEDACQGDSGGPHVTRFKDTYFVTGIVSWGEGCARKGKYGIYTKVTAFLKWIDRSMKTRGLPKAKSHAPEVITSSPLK
[9] abbreviates: High dose: 20.5 mg/kg bolus + 3.7 mg/kg/h.
The mark [10] stands for this setting: Low dose: 10.3 mg/kg bolus + 1.9 mg/kg/h.

Sequence of prekallikrein (PK) (P03952 20-638): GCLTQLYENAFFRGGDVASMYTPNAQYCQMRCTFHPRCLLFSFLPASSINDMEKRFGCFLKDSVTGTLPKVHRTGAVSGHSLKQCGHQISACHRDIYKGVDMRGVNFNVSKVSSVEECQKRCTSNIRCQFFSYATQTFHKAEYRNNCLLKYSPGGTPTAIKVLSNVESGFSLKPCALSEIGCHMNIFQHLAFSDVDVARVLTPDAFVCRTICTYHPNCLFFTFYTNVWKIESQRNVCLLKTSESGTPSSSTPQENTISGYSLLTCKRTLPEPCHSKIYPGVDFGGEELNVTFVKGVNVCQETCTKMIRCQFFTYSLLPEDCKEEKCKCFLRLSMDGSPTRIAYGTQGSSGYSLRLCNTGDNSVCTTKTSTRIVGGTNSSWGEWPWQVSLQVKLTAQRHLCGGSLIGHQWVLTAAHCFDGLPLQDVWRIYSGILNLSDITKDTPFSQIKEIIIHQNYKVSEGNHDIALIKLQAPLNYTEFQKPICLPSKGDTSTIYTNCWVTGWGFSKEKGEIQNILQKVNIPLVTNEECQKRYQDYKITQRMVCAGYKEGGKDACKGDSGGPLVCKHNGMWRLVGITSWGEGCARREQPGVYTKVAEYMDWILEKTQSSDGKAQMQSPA

B1: Ir-CPI: Ixodes ricinus salivary gland polypeptide, contact phase inhibitor, MW=7660 Da; sequence SEQ ID NO: 1 or SEQ ID NO: 2 (protein)
chain: ANHKGRGRPAKCKLPPDDGPCRARIPSYYFDRKTKTCKEFMYGGCEGNENNFENITTCQEECRAKKV
Regarding B1, the “binding to prekallikrein (PK)” value in data set [1] is listed as “unable to bind”. Besides, in data set [2] (ATP 10 μM, Ir-CPI 0.65 or 2 μM (FIG. 17A)), the “expression of Ly6G at the surface of neutrophils” value was “decreased”. Moreover, the “expression of activated CD11b at the surface of neutrophils” value in data set [2] (ATP 10 μM, Ir-CPI 0.65 or 2 μM (FIG. 17C)) is “significantly decreased”. Besides, the “expression of CD11b” value in data set [2] (ATP experiment (FIG. 17B), Ir-CPI 0.65 and 2 μM) is reported as “no effect”. Further, in data set [3] (setting [9]), the “fibrin generation compared to NaCl cancer mice” value was “significant decrease” and the “platelet accumulation compared to NaCl cancer mice” value is “significant decrease”. Further, in data set [3] (High dose, vs NaCl cancer-free mice (*p<0.05) and NaCl cancer mice (***p<0.001)), the “integrated fluorescence intensity of platelet labeling (area under curve)” value is “significantly lower”. In data set [3] (setting [10]), the “fibrin generation compared to NaCl cancer mice” value is recorded as “significant decrease” and the “platelet accumulation compared to NaCl cancer mice” value is given as “significant decrease”. Also, in data set [4], the t1/2α worked out at 0.233 h and the t1/2β came out at 3.93 h. The clot fibrinolysis time entry in data set [5] is “prolongs”. Moreover, the “activated Partial Thromboplastin Time (aPTT)” value in data set [6] is on record as “prolong”. In data set [7], the “signal corresponding to neutrophil elastase activity compared to control mice” value is “drastically reduced”. Besides, the “activity on Factor Xa” value in data set [8] was “totally inactive”.

The values are drawn from patent US20250295734A1, “ANTICOAGULANT PROTEINS AND THEIR USE FOR TREATING DISEASES ASSOCIATED WITH THE ACTIVATION OF NEUTROPHILS” (BIOXODES, priority 2018, published 2025).
